{
  "source": "paper doi:10.1101/2020.07.29.226720v1",
  "about": "(biorxiv, 2020)",
  "key": {"AthPEPCK1 WT": {"target": "T1, AthPEPCK1 WT (Arabidopsis thaliana, UniProt Q9T074)", "T1 sequence (Q9T074 2-671)": "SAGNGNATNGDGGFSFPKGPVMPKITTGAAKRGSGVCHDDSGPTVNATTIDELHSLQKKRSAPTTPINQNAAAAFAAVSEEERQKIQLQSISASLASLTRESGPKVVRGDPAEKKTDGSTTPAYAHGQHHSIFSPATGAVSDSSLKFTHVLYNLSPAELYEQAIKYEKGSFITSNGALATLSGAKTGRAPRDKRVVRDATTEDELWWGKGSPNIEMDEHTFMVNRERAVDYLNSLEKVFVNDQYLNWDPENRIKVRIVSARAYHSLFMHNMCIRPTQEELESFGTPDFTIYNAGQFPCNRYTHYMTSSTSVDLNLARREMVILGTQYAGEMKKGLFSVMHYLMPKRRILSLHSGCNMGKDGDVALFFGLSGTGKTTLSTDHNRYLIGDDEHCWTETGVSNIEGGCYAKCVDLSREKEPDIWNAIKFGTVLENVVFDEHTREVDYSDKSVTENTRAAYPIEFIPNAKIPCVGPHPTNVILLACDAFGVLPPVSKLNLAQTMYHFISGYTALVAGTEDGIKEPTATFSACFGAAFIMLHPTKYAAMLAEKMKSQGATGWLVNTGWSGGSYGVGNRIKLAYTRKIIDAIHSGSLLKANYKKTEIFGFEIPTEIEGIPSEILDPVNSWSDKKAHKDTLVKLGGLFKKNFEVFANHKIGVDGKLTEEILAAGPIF", "assay": "activity with effector, carboxylation direction", "assay_type": "biochemical", "settings": "allosteric activator; 10 mM PEP, 0.13 mM ADP"}, "AthPEPCK1 Δ101": {"target": "T2, AthPEPCK1 Δ101 (Arabidopsis thaliana, UniProt Q9T074)", "T2 sequence (Q9T074 102-671)": "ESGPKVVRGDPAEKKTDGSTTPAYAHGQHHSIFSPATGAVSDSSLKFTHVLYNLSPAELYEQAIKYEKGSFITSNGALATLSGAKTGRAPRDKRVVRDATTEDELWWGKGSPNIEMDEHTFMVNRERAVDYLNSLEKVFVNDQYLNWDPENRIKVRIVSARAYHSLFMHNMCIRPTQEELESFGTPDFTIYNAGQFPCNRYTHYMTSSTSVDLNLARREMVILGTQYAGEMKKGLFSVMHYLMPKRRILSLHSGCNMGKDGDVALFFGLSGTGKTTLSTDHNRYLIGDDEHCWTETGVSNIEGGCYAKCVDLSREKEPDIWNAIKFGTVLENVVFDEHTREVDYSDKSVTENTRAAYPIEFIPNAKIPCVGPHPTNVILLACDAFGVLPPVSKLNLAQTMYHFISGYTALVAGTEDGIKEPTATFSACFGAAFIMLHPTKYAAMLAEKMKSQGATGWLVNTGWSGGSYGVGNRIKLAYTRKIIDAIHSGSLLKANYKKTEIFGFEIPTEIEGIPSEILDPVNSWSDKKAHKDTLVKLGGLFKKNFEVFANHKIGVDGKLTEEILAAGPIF", "assay": "activity with effector, decarboxylation direction", "assay_type": "biochemical", "settings": "allosteric activator; 0.5 mM OAA, 0.3 mM ATP"}, "purified protein": {"substrate": "Nc1ncnc2c1ncn2[C@@H]1O[C@H](COP(=O)(O)OP(=O)(O)OP(=O)(O)O)[C@@H](O)[C@H]1O", "assay": "purified protein", "settings": "0.5 mM OAA"}, "[1]": {"substrate": "Nc1ncnc2c1ncn2[C@@H]1O[C@H](COP(=O)(O)OP(=O)(O)O)[C@@H](O)[C@H]1O", "assay": "steady-state kinetics, carboxylation direction", "assay_type": "biochemical, Arabidopsis thaliana"}},
  "data": [
    {"molecule": "O=C(O)C[C@H](O)C(=O)O", "note": "[malate]", "values": [
      {"measurement": "fold activation", "setting": "AthPEPCK1 WT", "value": 2, "unit": "fold"}
    ]},
    {"molecule": "O=P(O)(O)OC[C@H]1OC(O)[C@H](O)[C@@H](O)[C@@H]1O", "note": "(stereo partly shown) [Glc6P]", "values": [
      {"measurement": "fold activation", "setting": "AthPEPCK1 Δ101", "value": 2, "unit": "fold"}
    ]},
    {"molecule": "AthPEPCK1 Δ19 (Arabidopsis thaliana) (protein) GPVMPKITTGAAKRGSGVCHDDSGPTVNATTIDELHSLQKKRSAPTTPINQNAAAAFAAVSEEERQKIQLQSISASLASLTRESGPKVVRGDPAEKKTDGSTTPAYAHGQHHSIFSPATGAVSDSSLKFTHVLYNLSPAELYEQAIKYEKGSFITSNGALATLSGAKTGRAPRDKRVVRDATTEDELWWGKGSPNIEMDEHTFMVNRERAVDYLNSLEKVFVNDQYLNWDPENRIKVRIVSARAYHSLFMHNMCIRPTQEELESFGTPDFTIYNAGQFPCNRYTHYMTSSTSVDLNLARREMVILGTQYAGEMKKGLFSVMHYLMPKRRILSLHSGCNMGKDGDVALFFGLSGTGKTTLSTDHNRYLIGDDEHCWTETGVSNIEGGCYAKCVDLSREKEPDIWNAIKFGTVLENVVFDEHTREVDYSDKSVTENTRAAYPIEFIPNAKIPCVGPHPTNVILLACDAFGVLPPVSKLNLAQTMYHFISGYTALVAGTEDGIKEPTATFSACFGAAFIMLHPTKYAAMLAEKMKSQGATGWLVNTGWSGGSYGVGNRIKLAYTRKIIDAIHSGSLLKANYKKTEIFGFEIPTEIEGIPSEILDPVNSWSDKKAHKDTLVKLGGLFKKNFEVFANHKIGVDGKLTEEILAAGPIF", "values": [
      {"measurement": "Km", "setting": "purified protein", "value": "29 ± 6", "unit": "µM"},
      {"measurement": "kcat", "setting": "purified protein", "value": "3.38 ± 0.06", "unit": "s⁻¹"},
      {"measurement": "Km", "setting": "[1]; 5 mM PEP", "value": "40 ± 1", "unit": "µM"},
      {"measurement": "kcat", "setting": "[1]; 5 mM PEP", "value": "2.64 ± 0.06", "unit": "s⁻¹"}
    ]},
    {"molecule": "AthPEPCK1 Δ101 (Arabidopsis thaliana) (protein) ESGPKVVRGDPAEKKTDGSTTPAYAHGQHHSIFSPATGAVSDSSLKFTHVLYNLSPAELYEQAIKYEKGSFITSNGALATLSGAKTGRAPRDKRVVRDATTEDELWWGKGSPNIEMDEHTFMVNRERAVDYLNSLEKVFVNDQYLNWDPENRIKVRIVSARAYHSLFMHNMCIRPTQEELESFGTPDFTIYNAGQFPCNRYTHYMTSSTSVDLNLARREMVILGTQYAGEMKKGLFSVMHYLMPKRRILSLHSGCNMGKDGDVALFFGLSGTGKTTLSTDHNRYLIGDDEHCWTETGVSNIEGGCYAKCVDLSREKEPDIWNAIKFGTVLENVVFDEHTREVDYSDKSVTENTRAAYPIEFIPNAKIPCVGPHPTNVILLACDAFGVLPPVSKLNLAQTMYHFISGYTALVAGTEDGIKEPTATFSACFGAAFIMLHPTKYAAMLAEKMKSQGATGWLVNTGWSGGSYGVGNRIKLAYTRKIIDAIHSGSLLKANYKKTEIFGFEIPTEIEGIPSEILDPVNSWSDKKAHKDTLVKLGGLFKKNFEVFANHKIGVDGKLTEEILAAGPIF", "values": [
      {"measurement": "Km", "setting": "purified protein", "value": "80 ± 10", "unit": "µM"},
      {"measurement": "kcat", "setting": "purified protein", "value": "3.9 ± 0.2", "unit": "s⁻¹"},
      {"measurement": "Km", "setting": "[1]; 15 mM PEP", "value": "57 ± 6", "unit": "µM"},
      {"measurement": "kcat", "setting": "[1]; 15 mM PEP", "value": "3.01 ± 0.08", "unit": "s⁻¹"}
    ]}
  ]
}
